# Assay results: the supplement of paper PMC11316812
# ± gives the standard deviation of the averaged measurements.
# Key:
# MCF7 = assay: percentage of EdU-negative (G0-arrested) nuclei per well, 72 h; higher = more G0 arrest; conditions: reference: sequence is the full UniProt precursor, the tested protein was the secreted form or ectodomain
# hTERT-HMEC = assay: as above; conditions: reference: sequence is the full UniProt precursor, the tested protein was the secreted form or ectodomain
# [1] = protein concentration 0.0125 µM
# [2] = protein concentration 0.0105714 µM
# [3] = protein concentration 0.105714 µM
# [4] = protein concentration 0.0111425 µM
# [5] = protein concentration 0.111425 µM
# [6] = protein concentration 0.03125 µM
# [7] = protein concentration 0.3125 µM
# [8] = protein concentration 0.00875 µM
# [9] = protein concentration 0.0875 µM
# [10] = protein concentration 0.0225 µM
# 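Note: secreted proteins added to cultured cells, EdU pulse at the end, nuclei found by Hoechst imaging, EdU status from nuclear versus surrounding ring intensity ratio, PBS as neutral control.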
sequence,measurement,setting,value
MVLLLLVAIPLLVHSSRGPAHYEMLGRCRMVCDPHGPRGPGPDGAPASVPPFPPGAKGEVGRRGKAGLRGPPGPPGPRGPPGEPGRPGPPGPPGPGPGGVAPAAGYVPRIAFYAGLRRPHEGYEVLRFDDVVTNVGNAYEAASGKFTCPMPGVYFFAYHVLMRGGDGTSMWADLMKNGQVRASAIAQDADQNYDYASNSVILHLDVGDEVFIKLDGGKVHGGNTNKYSTFSGFIIYPD [Q86Z23],percentage of EdU-negative,MCF7; [1],23.6 ± 0.38%
same,percentage of EdU-negative,MCF7; protein concentration 0.125 µM,27.2 ± 2.1%
same,percentage of EdU-negative,hTERT-HMEC; [1],4.79 ± 0.17%
same,percentage of EdU-negative,hTERT-HMEC; protein concentration 0.125 µM,6.46 ± 0.13%
MVLLRVLILLLSWAAGMGGQYGNPLNKYIRHYEGLSYNVDSLHQKHQRAKRAVSHEDQFLRLDFHAHGRHFNLRMKRDTSLFSDEFKVETSNKVLDYDTSHIYTGHIYGEEGSFSHGSVIDGRFEGFIQTRGGTFYVEPAERYIKDRTLPFHSVIYHEDDINYPHKYGPQGGCADHSVFERMRKYQMTGVEEVTQIPQEEHAANGPELLRKKRTTSAEKNTCQLYIQTDHLFFKYYGTREAVIAQISSHVKAIDTIYQTTDFSGIRNISFMVKRIRINTTADEKDPTNPFRFPNIGVEKFLELNSEQNHDDYCLAYVFTDRDFDDGVLGLAWVGAPSGSSGGICEKSKLYSDGKKKSLNTGIITVQNYGSHVPPKVSHITFAHEVGHNFGSPHDSGTECTPGESKNLGQKENGNYIMYARATSGDKLNNNKFSLCSIRNISQVLEKKRNNCFVESGQPICGNGMVEQGEECDCGYSDQCKDECCFDANQPEGRKCKLKPGKQCSPSQGPCCTAQCAFKSKSEKCRDDSDCAREGICNGFTALCPASDPKPNFTDCNRHTQVCINGQCAGSICEKYGLEECTCASSDGKDDKELCHVCCMKKMDPSTCASTGSVQWSRHFSGRTITLQPGSPCNDFRGYCDVFMRCRLVDADGPLARLKKAIFSPELYENIAEWIVAHWWAVLLMGIALIMLMAGFIKICSVHTPSSNPKLPPPKPLPGTLKRRRPPQPIQQPQRQRPRESYQMGHMRR,percentage of EdU-negative,MCF7; [2],24.8 ± 1.8%
same,percentage of EdU-negative,MCF7; [3],26.2 ± 1.3%
same,percentage of EdU-negative,hTERT-HMEC; [2],6.02 ± 1.1%
same,percentage of EdU-negative,hTERT-HMEC; [3],6.36 ± 1.3%
MVLLWEPAGAWLALGLALALGPSVAAAAPRQDCTGVECPPLENCIEEALEPGACCATCVQQGCACEGYQYYDCLQGGFVRGRVPAGQSYFVDFGSTECSCPPGGGKISCQFMLCPELPPNCIEAVVVADSCPQCGQVGCVHAGHKYAAGHTVHLPPCRACHCPDAGGELICYQLPGCHGNFSDAEEGDPERHYEDPYSYDQEVAEVEAATALGGEVQAGAVQAGAGGPPAALGGGSQPLSTIQAPPWPAVLPRPTAAAALGPPAPVQAKARRVTEDSEEEEEEEEEREEMAVTEQLAAGGHRGLDGLPTTAPAGPSLPIQEERAEAGARAEAGARPEENLILDAQATSRSTGPEGVTHAPSLGKAALVPTQAVPGSPRDPVKPSPHNILSTSLPDAAWIPPTREVPRKPQVLPHSHVEEDTDPNSVHSIPRSSPEGSTKDLIETCCAAGQQWAIDNDECLEIPESGTEDNVCRTAQRHCCVSYLQEKSCMAGVLGAKEGETCGAEDNDSCGISLYKQCCDCCGLGLRVRAEGQSCESNPNLGYPCNHVMLSCCEGEEPLIVPEVRRPPEPAAAPRRVSEAEMAGREALSLGTEAELPNSLPGDDQDECLLLPGELCQHLCINTVGSYHCACFPGFSLQDDGRTCRPEGHPPQPEAPQEPALKSEFSQVASNTIPLPLPQPNTCKDNGPCKQVCSTVGGSAICSCFPGYAIMADGVSCEDINECVTDLHTCSRGEHCVNTLGSFHCYKALTCEPGYALKDGECEDVDECAMGTHTCQPGFLCQNTKGSFYCQARQRCMDGFLQDPEGNCVDINECTSLSEPCRPGFSCINTVGSYTCQRNPLICARGYHASDDGTKCVDVNECETGVHRCGEGQVCHNLPGSYRCDCKAGFQRDAFGRGCIDVNECWASPGRLCQHTCENTLGSYRCSCASGFLLAADGKRCEDVNECEAQRCSQECANIYGSYQCYCRQGYQLAEDGHTCTDIDECAQGAGILCTFRCLNVPGSYQCACPEQGYTMTANGRSCKDVDECALGTHNCSEAETCHNIQGSFRCLRFECPPNYVQVSKTKCERTTCHDFLECQNSPARITHYQLNFQTGLLVPAHIFRIGPAPAFTGDTIALNIIKGNEEGYFGTRRLNAYTGVVYLQRAVLEPRDFALDVEMKLWRQGSVTTFLAKMHIFFTTFAL,percentage of EdU-negative,MCF7; [4],23.7 ± 1.3%
same,percentage of EdU-negative,MCF7; [5],25.1 ± 2.6%
same,percentage of EdU-negative,hTERT-HMEC; [4],5.72 ± 0.17%
same,percentage of EdU-negative,hTERT-HMEC; [5],6.99 ± 0.78%
MVLLWLTLLLIALPCLLQTKEDPNPPITNLRMKAKAQQLTWDLNRNVTDIECVKDADYSMPAVNNSYCQFGAISLCEVTNYTVRVANPPFSTWILFPENSGKPWAGAENLTCWIHDVDFLSCSWAVGPGAPADVQYDLYLNVANRRQQYECLHYKTDAQGTRIGCRFDDISRLSSGSQSSHILVRGRSAAFGIPCTDKFVVFSQIEILTPPNMTAKCNKTHSFMHWKMRSHFNRKFRYELQIQKRMQPVITEQVRDRTSFQLLNPGTYTVQIRARERVYEFLSAWSTPQRFECDQEEGANTRAWRTSLLIALGTLLALVCVFVICRRYLVMQRLFPRIPHMKDPIGDSFQNDKLVVWEAGKAGLEECLVTEVQVVQKT,percentage of EdU-negative,MCF7; [6],26.3 ± 2.9%
same,percentage of EdU-negative,MCF7; [7],30.4 ± 0.99%
same,percentage of EdU-negative,hTERT-HMEC; [6],4.403 ± 0.019%
same,percentage of EdU-negative,hTERT-HMEC; [7],5.4 ± 0.13%
MVLWESPRQCSSWTLCEGFCWLLLLPVMLLIVARPVKLAAFPTSLSDCQTPTGWNCSGYDDRENDLFLCDTNTCKFDGECLRIGDTVTCVCQFKCNNDYVPVCGSNGESYQNECYLRQAACKQQSEILVVSEGSCATDAGSGSGDGVHEGSGETSQKETSTCDICQFGAECDEDAEDVWCVCNIDCSQTNFNPLCASDGKSYDNACQIKEASCQKQEKIEVMSLGRCQDNTTTTTKSEDGHYARTDYAENANKLEESAREHHIPCPEHYNGFCMHGKCEHSINMQEPSCRCDAGYTGQHCEKKDYSVLYVVPGPVRFQYVLIAAVIGTIQIAVICVVVLCITRKCPRSNRIHRQKQNTGHYSSDNTTRASTRLI [Q9UIK5],percentage of EdU-negative,MCF7; [8],23.6 ± 4.7%
same,percentage of EdU-negative,MCF7; [9],28.2 ± 2%
same,percentage of EdU-negative,hTERT-HMEC; [8],5.34 ± 0.33%
same,percentage of EdU-negative,hTERT-HMEC; [9],11.1 ± 2.2%
MVMLLLLLSALAGLFGAAEGQAFHLGKCPNPPVQENFDVNKYLGRWYEIEKIPTTFENGRCIQANYSLMENGKIKVLNQELRADGTVNQIEGEATPVNLTEPAKLEVKFSWFMPSAPYWILATDYENYALVYSCTCIIQLFHVDFAWILARNPNLPPETVDSLKNILTSNNIDVKKMTVTDQVNCPKLS,percentage of EdU-negative,MCF7; [10],24.66 ± 0.099%
same,percentage of EdU-negative,MCF7; protein concentration 0.225 µM,25.9 ± 3%
same,percentage of EdU-negative,hTERT-HMEC; [10],4.945 ± 0.022%
same,percentage of EdU-negative,hTERT-HMEC; protein concentration 0.225 µM,4.745 ± 0.02%
MVMRPLWSLLLWEALLPITVTGAQVLSKVGGSVLLVAARPPGFQVREAIWRSLWPSEELLATFFRGSLETLYHSRFLGRAQLHSNLSLELGPLESGDSGNFSVLMVDTRGQPWTQTLQLKVYDAVPRPVVQVFIAVERDAQPSKTCQVFLSCWAPNISEITYSWRRETTMDFGMEPHSLFTDGQVLSISLGPGDRDVAYSCIVSNPVSWDLATVTPWDSCHHEAAPGKASYKDVLLVVVPVSLLLMLVTLFSAWHWCPCSGKKKKDVHADRVGPETENPLVQDLP [Q9P0V8],percentage of EdU-negative,MCF7; [10],34.5 ± 7.9%
same,percentage of EdU-negative,MCF7; protein concentration 0.225 µM,28.8 ± 0.29%
same,percentage of EdU-negative,hTERT-HMEC; [10],7.18 ± 1.4%
same,percentage of EdU-negative,hTERT-HMEC; protein concentration 0.225 µM,4 ± 0.28%
